Test results as given in patent US20180072805A1.

Target: recombinant human soluble Flt-1 (human) (UniProt P17948)
Test: competition ELISA, inhibition of human sFlt-1:VEGF binding

Chain of UniProt P17948 (P17948 other isoform, or with tags, fused parts or gaps limits assumed): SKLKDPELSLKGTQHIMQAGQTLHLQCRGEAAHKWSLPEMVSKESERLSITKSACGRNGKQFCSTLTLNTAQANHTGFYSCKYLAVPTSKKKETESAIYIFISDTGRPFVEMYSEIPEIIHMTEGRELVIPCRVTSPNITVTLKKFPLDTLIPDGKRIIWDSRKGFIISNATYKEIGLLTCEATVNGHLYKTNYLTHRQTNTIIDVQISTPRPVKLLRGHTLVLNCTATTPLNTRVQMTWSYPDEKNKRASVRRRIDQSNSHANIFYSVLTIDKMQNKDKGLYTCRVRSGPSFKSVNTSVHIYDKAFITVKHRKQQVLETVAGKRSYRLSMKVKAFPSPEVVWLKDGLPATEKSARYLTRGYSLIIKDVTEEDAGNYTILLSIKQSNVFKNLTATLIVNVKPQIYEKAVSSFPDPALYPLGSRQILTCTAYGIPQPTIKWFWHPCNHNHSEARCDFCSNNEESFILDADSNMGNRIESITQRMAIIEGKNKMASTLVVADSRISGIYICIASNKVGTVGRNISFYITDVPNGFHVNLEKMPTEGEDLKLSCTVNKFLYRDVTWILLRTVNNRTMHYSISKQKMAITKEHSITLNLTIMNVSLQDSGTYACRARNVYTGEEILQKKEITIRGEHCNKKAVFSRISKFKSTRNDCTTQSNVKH

Question: How did the IC50 (read off the curve) turn out when Abcam56300 (antibody) was run?
Answer: Its IC50 (read off the curve) is 10 ng/mL.
